Each block holds one substance with its values, some of them ahead of it.
What was measured:
[1] = target: Psu M6 mutant (P169V) (bacteriophage P4) (UniProt P05460); experiment: cross-linking
[2] = target: Psu (polarity suppression protein), wild type, non-His-tagged (bacteriophage P4) (UniProt P05460); experiment: SEC
[3] = target: Psu (polarity suppression protein), wild type, non-His-tagged (bacteriophage P4) (UniProt P05460); experiment: cross-linking
[4] = target: Δ-CTD10 Psu, His-tagged (pRS459, pET28b) (bacteriophage P4) (UniProt P05460); experiment: cross-linking

stoichiometry N [1]: 2
Substance: Psu M6 mutant (P169V) (from UniProt P05460 1-190) (natural protein)

stoichiometry N [2]: 3
stoichiometry N [3]: 2
Substance: Psu (polarity suppression protein), wild type, non-His-tagged (from UniProt P05460 1-190) (natural protein)

stoichiometry N [4]: 2
Substance: Δ-CTD10 Psu, His-tagged (pRS459, pET28b) (from UniProt P05460 1-180) (domain or fragment)

From paper PMC1950596
